In patent publication US20240116985A1, “STAPLED PEPTIDES AND METHODS THEREOF” (priority 2020, published 2024):
Starred links: 1 amine or outer side, 2 acyl side, 3 side chain; linkers in the order of their positions; H or OH if unused. Positions of bridges follow the written chain, without caps; N, C: chain ends. Non-standard residues stand in square brackets, D forms with d. Primed or numbered codes have the meaning given here. *: point of attachment. PyrS2″ = (S)-3-amino-1-((pent-4-en-1-yloxy)carbonyl)pyrrolidine-3-carboxylic acid (stapling residue), C=CCCCOC(=O)N1CC[C@@](N[*:1])(C(=O)[*:2])C1; B5(4) = 2,2-bis(4-pentenyl)glycine = 2-amino-2-(pent-4-en-1-yl)hept-6-enoic acid (stitching residue), C=CCCCC(CCCC=C)(N[*:1])C(=O)[*:2]; B5(5) = 2,2-bis(4-pentenyl)glycine, 2-amino-2-(pent-4-en-1-yl)hept-6-enoic acid (stitching residue), C=CCCCC(CCCC=C)(N[*:1])C(=O)[*:2]; TfeGA = (S)-2-amino-3-((carboxymethyl)(2,2,2-trifluoroethyl)amino)propanoic acid, O=C([C@H](CN(CC(=O)[*:3])CC(F)(F)F)N[*:1])[*:2]; PyrS2 = (S)-3-amino-1-((pent-4-en-1-yloxy)carbonyl)pyrrolidine-3-carboxylic acid, C=CCCCOC(=O)N1CC[C@@](N[*:1])(C(=O)[*:2])C1; B5(3) = 2,2-bis(4-pentenyl)glycine (stitching residue), C=CCCCC(CCCC=C)(N[*:1])C(=O)[*:2]; B5 = 2-amino-2-(pent-4-en-1-yl)hept-6-enoic acid, C=CCCCC(CCCC=C)(N[*:1])C(=O)[*:2]; Phe(2-Cl) = N[C@@H](Cc1ccccc1Cl)C(=O)O; 1Nal = N[C@@H](Cc1cccc2ccccc12)C(=O)O; 2Nal = N[C@@H](Cc1ccc2ccccc2c1)C(=O)O; Phe(2-F) = N[C@@H](Cc1ccccc1F)C(=O)O; Bta = N[C@@H](Cc1csc2ccccc12)C(=O)O; αAllylPro = C=CC[C@@]1(C(=O)O)CCCN1; tBuAla = CC(C)(C)C[C@H](N)C(=O)O; 3Thi = N[C@@H](Cc1ccsc1)C(=O)O; Cha = N[C@@H](CC1CCCCC1)C(=O)O; S8 = C=CCCCCCC[C@](C)(N)C(=O)O; hLeu = CC(C)CC[C@H](N)C(=O)O; Prolinol = OC[C@@H]1CCCN1*; hSer = N[C@@H](CCO)C(=O)O; Dap = NC[C@H](N)C(=O)O; Ms = CS(=O)(=O)*

B1: I-1101 (peptide)
peptide: Ac-[αAllylPro]D[tBuAla][B5(3)]DDAAFS[PyrS2″][Phe(2-F)][Bta]S-NH2
modifications: staple 1-4, 4-11
B2: I-552 (peptide)
peptide: Ac-[αAllylPro]DI[B5(4)]DDAAFN[S8][3Thi][Bta]Q-NH2
modifications: staple 1-4, 4-11
B3: I-1102 (peptide)
peptide: Ac-[αAllylPro]D[Cha][B5(3)]DDAAFS[PyrS2″][Phe(2-F)][Bta]S-NH2
modifications: staple 1-4, 4-11
B4: I-545 (peptide)
peptide: Ac-[αAllylPro]D[hLeu][B5(4)]DEAAFQ[S8]F[Bta]Q-NH2
modifications: staple 1-4, 4-11
B5: I-1109 (peptide)
peptide: Ac-[αAllylPro]D[2Nal][B5(3)]DDAAFS[PyrS2″][Phe(2-Cl)][Bta]Q-NH2
modifications: staple 1-4, 4-11
B6: I-1108 (peptide)
peptide: Ac-[αAllylPro]D[1Nal][B5(3)]DDAAFS[PyrS2″][Phe(2-Cl)][Bta]Q-NH2
modifications: staple 1-4, 4-11
B7: I-1100 (peptide)
peptide: Ac-[αAllylPro]D[Cha][B5(3)]DDAAFS[PyrS2″]F[Bta]S-NH2
modifications: staple 1-4, 4-11
B8: I-951 (peptide)
peptide: Ac-[αAllylPro]D[tBuAla][B5]D[TfeGA]AAFN[PyrS2][3Thi][Bta][hSer]-NH2
modifications: staple 1-4, 4-11; also: later-eluting staple isomer composition
B9: I-1092 (peptide)
peptide: Ac-[αAllylPro]D[tBuAla][B5(3)]DDAAFT[S8][Phe(2-Cl)][Bta][dT]-NH2
modifications: staple 1-4, 4-11
B10: I-1091 (peptide)
peptide: Ac-[αAllylPro]D[tBuAla][B5(3)]DEAAFT[S8][Phe(2-Cl)][Bta]T-NH2
modifications: staple 1-4, 4-11
B11: I-1086 (peptide)
peptide: Ac-[αAllylPro]D[tBuAla][B5(3)]DDAAFT[S8][Phe(2-Cl)][Bta]Q-NH2
modifications: staple 1-4, 4-11; also: earlier eluting staple isomer
B12: I-1089 (peptide)
peptide: Ac-[αAllylPro]D[tBuAla][B5(3)]DEAAFT[S8][Phe(2-Cl)][Bta]Q-NH2
modifications: staple 1-4, 4-11; also: later eluting staple isomer
B13: I-1088 (peptide)
peptide: Ac-[αAllylPro]D[tBuAla][B5(3)]DEAAFT[S8][Phe(2-Cl)][Bta]Q-NH2
modifications: staple 1-4, 4-11; also: earlier eluting staple isomer
B14: I-1090 (peptide)
peptide: Ac-[αAllylPro]D[tBuAla][B5(3)]DDAAFT[S8][Phe(2-Cl)][Bta]T-NH2
modifications: staple 1-4, 4-11
B15: I-1084 (peptide)
peptide: Ac-[αAllylPro]D[tBuAla][B5(4)]DDAAFN[PyrS2″][Phe(2-Cl)][Bta]-Prolinol
modifications: staple 1-4, 4-11
B16: I-533 (peptide)
peptide: Ac-[αAllylPro]DA[B5(4)]D[Dap](Ms)AAFN[S8]F[Bta]Q-NH2
modifications: staple 1-4, 4-11
B17: I-534 (peptide)
peptide: Ac-[αAllylPro][Dap](Ms)A[B5(4)]DEAAFN[S8]F[Bta]Q-NH2
modifications: staple 1-4, 4-11

molecular target: full-length beta-Catenin (Uniprot ID P35222) (Homo sapiens (Human)) (UniProt P35222); assay: fluorescence polarization competition; displacement of 5FAM-TCF4(10-53) from full-length beta-catenin
Target sequence in this assay (P35222 whole entry, the tested form may be a part): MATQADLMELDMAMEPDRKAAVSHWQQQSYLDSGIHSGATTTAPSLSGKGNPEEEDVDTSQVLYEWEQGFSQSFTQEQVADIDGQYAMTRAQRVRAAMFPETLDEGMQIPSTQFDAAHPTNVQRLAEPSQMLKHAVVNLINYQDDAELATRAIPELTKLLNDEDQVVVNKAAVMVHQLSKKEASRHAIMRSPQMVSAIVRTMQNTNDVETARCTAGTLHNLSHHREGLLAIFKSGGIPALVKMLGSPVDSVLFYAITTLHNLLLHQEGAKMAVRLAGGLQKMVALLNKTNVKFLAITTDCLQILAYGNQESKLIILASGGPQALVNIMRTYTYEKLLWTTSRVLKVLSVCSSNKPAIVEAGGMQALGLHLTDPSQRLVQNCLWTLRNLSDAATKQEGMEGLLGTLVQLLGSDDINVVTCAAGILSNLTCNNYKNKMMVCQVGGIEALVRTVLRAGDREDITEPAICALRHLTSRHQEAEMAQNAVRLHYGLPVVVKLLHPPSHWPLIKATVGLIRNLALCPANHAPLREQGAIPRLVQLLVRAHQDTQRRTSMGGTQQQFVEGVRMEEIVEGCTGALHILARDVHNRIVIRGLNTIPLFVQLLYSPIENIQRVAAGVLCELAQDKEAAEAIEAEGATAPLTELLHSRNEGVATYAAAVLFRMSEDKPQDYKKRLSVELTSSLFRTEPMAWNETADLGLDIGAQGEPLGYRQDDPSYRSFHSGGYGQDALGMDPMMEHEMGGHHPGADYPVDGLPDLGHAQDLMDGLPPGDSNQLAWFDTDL

IC50 [nM] | EC50 [nM] | Binder
14 | – | B1
– | 15.5 | B2
16 | – | B3
– | 21 | B4
24 | – | B5
18 | – | B6
16 | – | B7

molecular target: full-length beta-Catenin (Uniprot ID P35222) (Homo sapiens (Human)) (UniProt P35222); assay: fluorescence polarization competition; full-length beta-catenin, 5FAM-TCF4(10-53) probe
Target sequence in this assay (P35222 2-781 limits assumed): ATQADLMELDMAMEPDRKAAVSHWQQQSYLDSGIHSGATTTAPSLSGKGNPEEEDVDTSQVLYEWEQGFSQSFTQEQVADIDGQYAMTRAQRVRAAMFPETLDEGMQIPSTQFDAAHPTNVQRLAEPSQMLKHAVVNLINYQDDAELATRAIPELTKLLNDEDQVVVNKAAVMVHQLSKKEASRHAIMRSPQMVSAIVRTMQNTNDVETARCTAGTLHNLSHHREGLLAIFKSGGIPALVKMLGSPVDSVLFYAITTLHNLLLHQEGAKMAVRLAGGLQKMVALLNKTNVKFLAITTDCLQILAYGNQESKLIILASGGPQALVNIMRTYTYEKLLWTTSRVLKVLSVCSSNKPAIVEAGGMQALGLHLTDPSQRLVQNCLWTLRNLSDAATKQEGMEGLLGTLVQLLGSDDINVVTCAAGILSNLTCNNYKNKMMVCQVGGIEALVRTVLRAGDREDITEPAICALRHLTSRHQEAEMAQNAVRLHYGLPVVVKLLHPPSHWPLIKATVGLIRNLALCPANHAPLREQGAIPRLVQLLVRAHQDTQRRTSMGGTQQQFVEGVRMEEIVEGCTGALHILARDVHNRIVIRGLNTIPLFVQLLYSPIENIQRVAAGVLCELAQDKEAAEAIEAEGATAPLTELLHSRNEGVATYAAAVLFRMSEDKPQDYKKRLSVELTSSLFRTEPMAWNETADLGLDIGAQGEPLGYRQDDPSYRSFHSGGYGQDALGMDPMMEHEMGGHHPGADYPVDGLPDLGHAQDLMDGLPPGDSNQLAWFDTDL

IC50 [nM] | Binder
1470 | B8

molecular target: full-length beta-Catenin (Uniprot ID P35222) (Homo sapiens (Human)) (UniProt P35222); assay: fluorescence polarization competition; peptide titrated against 10 nM full-length beta-catenin + 10 nM 5FAM-TCF4(10-53)
Target sequence in this assay (P35222 2-781 limits assumed): as above

IC50 [nM] | Binder
26 | B9
27 | B10
12 | B11
12 | B12
22 | B13
18 | B14
368 | B15

molecular target: full-length beta-Catenin (Uniprot ID P35222) (Homo sapiens (Human)) (UniProt P35222); assay: fluorescence polarization competition; full-length beta-catenin + 5FAM-TCF4(10-53) probe as competitor
Target sequence in this assay (P35222 2-781 limits assumed): as above

EC50 [nM] | Binder
26 | B9
27 | B10
12 | B11
14 | B1
12 | B12
16 | B3
24 | B5
18 | B6
22 | B13
16 | B7
18 | B14
368 | B15

molecular target: full-length beta-Catenin (Uniprot ID P35222) (Homo sapiens (Human)) (UniProt P35222); assay: fluorescence polarization competition; full-length beta-catenin with 5FAM-labeled TCF4 residues 10-53 probe as competitor
Target sequence in this assay (P35222 whole entry, the tested form may be a part): as the sequence (P35222 whole entry, the tested form may be a part) above

IC50 [nM] | Binder
155 | B16
15.5 | B2
21 | B4
5000 | B17

molecular target: full-length beta-Catenin (Uniprot ID P35222) (Homo sapiens (Human)) (UniProt P35222); assay: fluorescence polarization competition; 10 nM full-length beta-catenin + 10 nM 5FAM-TCF4(10-53) probe
Target sequence in this assay (P35222 whole entry, the tested form may be a part): as above

EC50 [nM] | Binder
155 | B16
5000 | B17
1470 | B8
